The record followed here is PMC4508897.

The target of the experiment is human wt Ecad-GFP (wild-type E-cadherin fused to EGFP) (human) (UniProt P12830). Put plainly: TEM of gold nanoparticle.

The substance “human wt Ecad-GFP (wild-type E-cadherin fused to EGFP) (from UniProt P12830 23-882) (natural protein)” displayed a percent of NPs at <15 nm from their nearest neighbour of 20.6%.
